Earlier results as cited in PMC4703387, “Identification of the Calmodulin-Binding Domains of Fas Death Receptor” (PLoS ONE, 2016).

Molecular target: T1, Ca^2+/CaM (Homo sapiens, UniProt P0DP23)
T1 construct: made in house
Settings: ref [32]
Description: We have also shown that both lobes of Ca^2+/CaM are important for FasDD binding. […] Our attempt to identify the interaction regions by ... || To identify the Ca^2+/CaM-binding regions in large proteins is not a simple task. To predict the Ca^2+/CaM-binding site, a web-based tool is often used to provide favorable scores based on multiple criteria including hydropathy, α-helical propensity, hydrophobic residue content, residue charge, residue weight, helical class and occurrence of particular residues.[39] However, this method can still provide biased results.

B1: FasDD: intracellular death domain of Fas (protein)
chain: SKYITTIAGVMTLSQVKGFVRKNGVNEAKIDEIKNDNVQDTAEQKVQLLRNWHQLHGKKEAYDTLIKDLKKANLCTLAEKIQTII
  stoichiometry of Ca^2+/CaM–FasDD complex: two Ca^2+/CaM molecules binding simultaneously to FasDD
